Data published in PMC3236736, “Jamb and Jamc Are Essential for Vertebrate Myocyte Fusion” (PLoS Biology, 2011).

B1: Jamb extracellular domain fused to rat Cd4 domains 3 and 4 (Jamb-Cd4d3+4-6H; Jamb-Cd4d3+4-bio) (domain or fragment, zebrafish, UniProt A0A0R4IGV4 19-226, looked up)
chain: VTVSSRNPKVEVHEFSDAELSCEFKTEKDTNPRIEWKRKDKEKDVSFVYYGERFVGPFQDRADIEGATVRLRRVTQADAGEYRCEVSAPSDSISLGETNVTLRVLVPPQTPSCDVPSSALTGSQVELRCRDRHSIPPAVYTWYKDNRALPIRHPNATYTVNEFTGVLIPQSHYNPGTVCQHCMYHPNYHIPNTQLTTTFQTHDLNVAA
notes: Jamb (official symbol jam2a), zebrafish, Entrez Gene 100005261; Two forms with the same ectodomain were made; They are written as one molecule because the protein stood against itself in the homophilic test; also called Jam2a; zebrafish JAM-B orthologue; source: expressed as a soluble fusion protein, purified; not shown: rat Cd4 domains 3 and 4, C-terminal, kept; His6, C-terminal, kept
B2: Jamc extracellular domain fused to rat Cd4 domains 3 and 4 (Jamc-Cd4d3+4-6H; Jamc-Cd4d3+4-bio) (domain or fragment, zebrafish, UniProt A3KPA0 24-235, looked up)
chain: VLLKSTNSKPWVNEFESIELSCMIESITTTKPRIEWKKIKNGDPSYVYFDNQISGDLERRAKIREPATLVILNATRSDSADYRCEVTAPNDQKSFDEILISLTVRVKPVVPRCSVPKSIPVGKPAELHCLEDEGYPKSQYQWFRNKEEIPLDPKSSPKFFNSTYTLDGEMGTLKFSAVRKEDAGEYYCRAKNEAGISECGPQMMEVYDINIA
notes: Jamc (official symbol jam3b), zebrafish, Entrez Gene 569217; Two forms with the same ectodomain were made; They are written as one molecule because the protein stood against itself in the homophilic test; also called Jam3b; zebrafish JAM-C orthologue; source: expressed as a soluble fusion protein, purified; not shown: rat Cd4 domains 3 and 4, C-terminal, kept; His6, C-terminal, kept

How the values were obtained:
[1] = target: B2; experiment: SPR; equilibrium binding analysis with soluble recombinant extracellular domains; Jamc analyte; essentially as in ref. 33; details: both partners purified
[2] = target: B1; experiment: SPR; dissociation phase averaged over three concentrations of purified Jamc-Cd4d3+4-6H or Jamb-Cd4d3+4-6H analyte, fitted to a first-order decay; homophilic and heterophilic interactions; details: both partners purified

Kd [1] [µM]	stoichiometry N [2]	Binder
~4.7		B1
	1	B2
